Results on one molecule are retold here after US20180036395A1, “DOSAGE AND ADMINISTRATION OF MONOSPECIFIC AND BISPECIFIC ANTI-IGR-1R AND ANTI-ERBB3 ANTIBODIES” (Merrimack Pharmaceuticals, Inc., priority 2012, published 2018).

The test system of experiment [1] is BxPC-3 cells. The experiment is described as follows: In vitro signaling ELISA, KRAS wild-type cells. Format: cell-based, human. Conditions: combination 500 nM P4-G1-M1.3 + 250 nM GSK1120212, 24 hours, 10% serum, FIG. 3. Here is the method: Cells were treated with 500 nM P4-G1-M1.3, 250 nM GSK1120212 or the combination for 24 hours in 10% serum and ELISA assays were performed. The data was normalized to 10% serum without treatment.
The preclinical models to support this example are performed using BxPC-3 (KRAS wild-type) and KP4 (KRAS mutant) cell lines.
(An ELISA detects its analyte on a solid surface through an enzyme-linked reagent.)

In experiment [2] the test system is DU145 prostate cancer cells. Description: DU145 prostate cancer xenograft study. Format: in vivo, human. The note with it: combination of docetaxel (10mpk q7d) and P4-G1-M1.3 (30mpk, q3d); FIG. 4. How it is done: The y-axis represents mean tumor volume in mm^3 and the x-axis represents time in days.
For each of the xenograft studies below, cells are resuspended 1:1 with PBS:Growth factor-reduced Matrigel® and injected subcutaneously into Nu/Nu mice. Tumors are allowed to develop for 8 days. Antibodies are injected intraperitoneally every 3 days (q3d) at the indicated doses/mouse. Tumor lengths and widths are measured twice a week manually by caliper, and tumor volume calculated using the following formula: π/6(L×W^2). Each arm of a study contains 10 animals. All studies are carried out using methods approved by an internal IACUC panel.
Statistical significance across groups was determined using the student's T-test (*,p<0.05 vs control.; #,p<0.05 vs docetaxel; a,p<0.05 vs P4-G1-M1.3).
(Xenograft models place foreign cells or tissue in a host animal.)

Experiment [3] relates to non-small cell lung cancer (NSCLC). Description: Treatment of patients with non-small cell lung cancer. Format: in vivo, human. Conditions: everolimus + P4-G1-M1.3. How it is done:
(§1) P4-G1-M1.3 is formulated in 20 mM histidine, 100 mM arginine-HCl, 3% sucrose, at pH 5.5 supplemented with 0.002-0.02% of Tween® 80 at concentration range 5-15 mg/mL. P4-G1-M1.3 is administered to patients at 6 mg/kg, 12 mg/kg, 20 mg/kg, 30 mg/kg, 40 mg/kg, 50 mg/kg or 60 mg/kg q7d, ql4d, q21d, or q28d with a loading dose of 12 mg/kg, 20 mg/kg, 40 mg/kg, 40 mg/kg or 60 mg/kg Everolimus is administered to patients at 2.5 mg, 5 mg, or 10 mg orally once a day or once every other day.
Patients with non-small cell lung cancer (NSCLC) are treated by administration of either monotherapy with an effective amount of everolimus or an effective amount of P4-G1-M1.3, or with combination therapy comprising or consisting of administration of both the effective amount of everolimus and the effective amount of P4-G1-M1.3. P4-G1-M1.3 and everolimus are prepared and dosed as described in Example 1.

Experiment [4] relates to locally advanced or metastatic breast cancer. Description: Treatment of patients with locally advanced or metastatic breast cancer. Format: in vivo, human. Here is the method:
as §1
Patients with estrogen receptor positive or progesterone receptor positive or triple negative breast cancers that are locally advanced or metastatic, or with any of the tumor types listed in Examples 5-10, are treated with a combination of an effective amount of i) any of the mTOR inhibitors of the preceding examples (at doses as described therein), or with a pan-mTOR inhibitor (INK128, CC223, OSI207, AZD8055, AZD2014, or Palomid529) and ii) an effective amount of P4-G1-M1.3. Patients are dosed with P4-G1-M1.3 as described in Example 1. The dose of pan-mTOR inhibitor is the dose used in phase I or, preferably phase II or III clinical trials.
Postmenopausal women with estrogen receptor-positive locally advanced or metastatic breast cancer are treated with a combination of an effective amount of PI3K inhibitor (e.g., XL147 or BKM120) and an effective amount of P4-G1-M1.3. Patients are dosed with P4-G1-M1.3 as described in Example 1. XL147 is dosed at 25, 50, 100, or 200 mg orally once a day for 21 consecutive days. Alternately BKM120 is dosed at […] orally once a day for 28 consecutive days.
Women with estrogen or progesterone receptor positive locally advanced or metastatic breast cancer are treated with a combination therapy comprising or consisting of administration of an effective amount of an antihormonal therapy (such as tamoxifen, exemestane, letrozole or fulvestrant) and administration of an effective amount of P4-G1-M1.3. P4-G1-M1.3 is formulated and administered as described above. Antihormonal therapy is administered in accordance with manufacturer's directions.
Women with estrogen or progesterone receptor positive locally advanced or metastatic breast cancer are treated with a combination of an effective amount of PI3K/mTOR dual inhibitor NVP-BEZ235 and an effective amount of P4-G1-M1.3. Patients are dosed with P4-G1-M1.3 as described in Example 1. NVP-BEZ235 is given orally twice daily at doses of 400 mg, 600 mg, or 800 mg.
Women with locally advanced or metastatic breast cancer are treated with a combination of an effective amount of docetaxel (Taxotere®) and an effective amount of P4-G1-M1.3. Patients are dosed with P4-G1-M1.3 as described in Example 1. Patients are dosed with docetaxel at 25, 50, 75 or 100 mg/m^2 i.v. once every 3 weeks or per standard clinical practice.
Patients with metastatic breast cancer are treated with a combination of an effective amount of paclitaxel (Taxol®) or of eribulin and an effective amount of P4-G1-M1.3. Patients are dosed with P4-G1-M1 as described in Example 1. Patients are dosed per standard clinical practice for paclitaxel or eribulin.

In experiment [5] the test system is hepatocellular carcinoma (HCC). Description: Treatment of patients with hepatocellular carcinoma. The class given is in vivo, human. Here is the method:
as §1
Patients with hepatocellular carcinoma (HCC) are treated with P4-G1-M1.3 monotherapy. Patients are dosed with P4-G1-M1.3 as described in Example 1 (second line in patients refractory to sorafenib). […] Preclinical data to support this example may be obtained using HepG2 cells in vitro and in vivo.
Patients with hepatocellular carcinoma (HCC) are treated with a combination of an effective amount of sorafenib and an effective amount of P4-G1-M1.3. Patients are dosed with P4-G1-M1.3 as described in Example 1. Patients are dosed with sorafenib at 400 mg daily. […] Preclinical data to support this example may be obtained using HepG2 cells in vitro and in vivo.

B1: P4-G1-M1.3: anti-IGF-1R+anti-ErbB3 polyvalent bispecific antibody, IgG1-(scFv)2 (SEQ ID NO:148 and SEQ ID NO:149) (protein)
chain 1: EVQLLQSGGGLVQPGGSLRLSCAASGFLFSSYPMHWVRQAPGKGLEWVGSISPSGGATPYADSVKGRFTISRDNSKNTLYLQMNSLRPEDTAVYYCAKDFYNILTGNAFDKWGQGTSVTVSSASTGGGGSGGGGSGGGGSGGGGSDIQLTQSPSSLSASLGDRVTITCRASQGISSYLAWYQQKPGKAPKLLIYAGSTPQSGVPSRFSGSGSGTEFTLTISSLQPEDSGTYYCQQYWTWPLTFGGGTKVEIKRT
chain 2: EVQLVESGGGLVQPGRSLRLSCAASGFTFDDYAMHWVRQAPGKGLEWVSGISWNSGSTGYADSVKGRFTISRDNAKNSLYLQMNSLRAEDTALYYCARDLGYNQWLEGFDYWGQGTLVTVSSASTGGGGSGGGGSGGGGSGGGGSSSELTQDPAVSVALGQTVRITCQGDSLRSYYASWYQQKPGQAPVLVIYGKNNRPSGIPDRFSGSSSGNTASLTITGAQAEDEADYYCMSRDHPGNQWVFGGGTKVTVLG
modifications: Synthetic polypeptide:Anti-IGF-1R scFvs M76; Synthetic polypeptide:Anti-ErbB3 scFvs P6L
Turning to B1, the “signaling (pAkt Ser473, pERK)” value in experiment [1] is “inhibition of signaling”. Further, the “growth of DU145 prostate cancer cells in vivo (mean tumor volume)” value in experiment [2] was “inhibition of growth”. For the same molecule, the treatment outcome in experiment [3] was “combinatorially enhanced outcome”; in experiment [4] (ER or PR positive breast cancer, NVP-BEZ235 + P4-G1-M1.3) it was “combinatorially enhanced outcome”; in experiment [4] (ER or PR positive breast cancer, antihormonal therapy (tamoxifen, exemestane, letrozole or fulvestrant) + P4-G1-M1.3) it was “combinatorially enhanced outcome”; in experiment [4] (ER positive, PR positive or triple negative breast cancers (or tumor types of Examples 5-10), mTOR or pan-mTOR inhibitor + P4-G1-M1.3) it was “combinatorially enhanced outcome”; in experiment [4] (metastatic breast cancer, paclitaxel or eribulin + P4-G1-M1.3), “combinatorially enhanced outcome”; in experiment [4] (postmenopausal women, ER-positive breast cancer, PI3K inhibitor (XL147 or BKM120) + P4-G1-M1.3), “combinatorially enhanced outcome”. Further, the treatment outcome is “combinatorially enhanced outcome” in experiment [4] (women with locally advanced or metastatic breast cancer, docetaxel + P4-G1-M1.3) and “combinatorially enhanced outcome” in experiment [5] (patients with HCC, sorafenib 400 mg daily + P4-G1-M1.3). In experiment [5] (P4-G1-M1.3 monotherapy, second line in patients refractory to sorafenib, vs untreated historical controls or best supportive care), the “HCC symptoms (e.g., time to progression or progression-free survival)” value is “statistically significant improvement in HCC symptoms”.
